# B1: IDS-V5 (wild-type, full-length human iduronate 2-sulfatase, C-terminal V5 tag) (enzyme)
# chain: SETQANSTTDALNVLLIIVDDLRPSLGCYGDKLVRSPNIDQLASHSLLFQNAFAQQAVCAPSRVSFLTGRRPDTTRLYDFNSYWRVHAGNFSTIPQYFKENGYVTMSVGKVFHPGISSNHTDDSPYSWSFPPYHPSSEKYENTKTCRGPDGELHANLLCPVDVLDVPEGTLPDKQSTEQAIQLLEKMKTSASPFFLAVGYHKPHIPFRYPKEFQKLYPLENITLAPDPEVPDGLPPVAYNPWMDIRQREDVQALNISVPYGPIPVDFQRKIRQSYFASVSYLDTQVGRLLSALDDLQLANSTIIAFTSDHGWALGEHGEWAKYSNFDVATHVPLIFYVPGRTASLPEAGEKLFPYLDPFDSASQLMEPGRQSMDLVELVSLFPTLAGLAGLQVPPRCPVPSFHVELCREGKNLLKHFRFRDLEEDPYLPGNPRELIAYSQYPRPSDIPQWNSDKPSLKDIKIMGYSIRTIDYRYTVWVGFNPDEFLANFSDIHAGELYFVDSDPLQDHNMYNDSQGGDLFQLLMP
# Target: RNF13 DN-HA (dominant-negative RNF13, HA-tagged) (human) (UniProt O43567)
# Assay: co-IP
# Chain of UniProt O43567 (O43567 35-381): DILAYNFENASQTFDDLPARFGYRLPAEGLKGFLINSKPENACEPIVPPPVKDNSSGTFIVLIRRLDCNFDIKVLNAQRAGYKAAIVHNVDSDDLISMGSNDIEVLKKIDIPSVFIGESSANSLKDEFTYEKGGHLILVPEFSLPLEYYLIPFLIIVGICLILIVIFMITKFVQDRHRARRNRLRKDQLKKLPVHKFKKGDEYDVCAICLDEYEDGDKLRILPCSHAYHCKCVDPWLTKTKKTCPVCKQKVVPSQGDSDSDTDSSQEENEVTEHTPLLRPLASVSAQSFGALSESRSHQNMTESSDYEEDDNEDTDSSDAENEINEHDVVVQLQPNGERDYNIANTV
binder,measurement,value
B1,amount of IDS co-immunoprecipitated relative to RNF13 WT,50%

# Reference: paper doi:10.1101/2025.06.20.660705
